For orientation: stoichiometry N means a count of units in the complex or per binding partner.

In test [1] the target is SARS-CoV-1 RBD-5GS-1TD0 (SARS-CoV-1 | not stated). Kind of test: SDS-PAGE.
Test [2] deals with SARS-CoV-2 RBD-5GS-1TD0 (SARS-CoV-2 | not stated) (UniProt P0DTC2). Kind of test: SDS-PAGE.
Test [3] has the same target. Kind of test: SEC.

In test [1], SARS-CoV-1 RBD-5GS-1TD0 displayed a stoichiometry N of 3.
With “SARS-CoV-2 RBD-5GS-1TD0 (from UniProt P0DTC2 330-532)”, the stoichiometry N in test [2] and in test [3] was 3 each time.
